In patent US20050143285A1 (published 2005):

How the values were obtained:
α-bungarotoxin [1] = biological target: T1, α-bungarotoxin (UniProt P60615 22-95)
T1 sequence: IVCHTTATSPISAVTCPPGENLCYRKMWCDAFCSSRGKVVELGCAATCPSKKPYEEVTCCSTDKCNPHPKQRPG

α-bungarotoxin [2] = biological target: T1, α-bungarotoxin; assay: stopped-flow spectrofluorimetry, excitation 280 nm, emission above 305 nm
α-bungarotoxin [3] = biological target: T1, α-bungarotoxin; assay: stopped-flow spectrofluorimetry

B1: Aplysia californica acetylcholine binding protein (AChBP) (other)
chain: HSQANLMRLKSDLFNRSPMYPGPTKDDPLTVTLGFTLQDIVKADSSTNEVDLVYYEQQRWKLNSLMWDPNEYGNITDFRTSAADIWTPDITAYSSTRPVQVLSPQIAVVTHDGSVMFIPAQRLSFMCDPTGVDSEEGATCAVKFGSWVYSGFEIDLKTDTDQVDLSSYYASSKYEILSATQTRQVQHYSCCPEPYIDVNLVVKFRERRAGNGFFRNLFD
Q: For B1, which Kd (α-bungarotoxin [1]) is on record?
A: 250 nM

Q: And the kon (α-bungarotoxin [2])?
A: 1e+06 M⁻¹ s⁻¹

Q: What about the koff (α-bungarotoxin [3]) of the same binder?
A: 0.32 s⁻¹
